Experimental data as given in patent US20200392147, “AMIDINO- AND AMINO-ROCAGLATES AS NOVEL TRANSLATION INHIBITORS AND ANTICANCER AGENTS” (TRUSTEES OF BOSTON UNIVERSITY, published 2020).

Legend:
Assay in all cases: FP
Conditions in all cases: tags: His6 (pET15b, E. coli BL21(DE3)); label: FAM
[1] = molecular target: eIF4A2 (UniProt P10630 P10630:1-407)
Protocol: (§1) FIGS. 17A-17F. Assessment of eIF4A1 and eIF4A2 RNA binding specificity. 17A. Chemical structure of the most commonly used rocaglates in biological studies 17B. Coomassie blue staining of SDS-PAGE showing eIF4A1 and eIF4A2 preparations used herein. 17C. eIF4A1 and eIF4A2 have similar RNA binding specificities. eIF4A1 or eIF4A2 (500 nM) were incubated in the presence of FAM-labelled RNA (10 nM) having the indicated sequence composition for 30 mins, after which FP measurements were taken. The change in FP obtained relative to vehicle controls is presented. n=3 SD. 17D. Binding of eIF4A1 and eIF4A2 to RNA is equally responsive to CR-1-31-B (23). FAM labeled poly r(AG)₈ (SEQ ID NO: 2) (10 nM) was mixed with the indicated concentrations of eIF4A1 or eIF4A2 either in the presence of vehicle (DMSO) or […] CR-1-31-B(23). Reactions were equilibrated at RT for 30 minutes prior to measuring light polarization. n=3 SD. 17E. […] FAM-labelled RNA was incubated in the presence of 500 nM eIF4A1 and the indicated concentration of CR-1-31-B (23) for 30 min, after which time FP measurements were obtained. The change in FP relative to vehicle controls is presented. n=3±SD. 17F. The extent of eIF4A-RNA binding stimulated by CR-1-31-B 23 scales with polypurine content. FAM-labelled RNA was incubated with 500 nM eIF4A1 and the indicated concentration of CR-1-31-B (23) for 30 min, after which time FP measurements were obtained. The change in FP obtained relative to vehicle controls is presented. n=3 SD.

[2] = molecular target: T1, eIF4A1 (UniProt P60843 P60843:1-406)
Protocol: as §1

[3] = molecular target: T1, eIF4A1; remark: listed apart in the source
Protocol: FAM-labelled RNA was incubated in the presence of 500 nM eIF4A1 and the indicated concentration of CR-1-31-B for 30 min, after which time FP measurements were obtained. The change in FP relative to vehicle controls is presented. n=3 SD.
as §1, with “The extent of eIF4A-RNA binding stimulated by CR-1-31-B 23 scales with polypurine content. FAM-labelled RNA was incubated with 500 nM eIF4A1 and the indicated concentration of CR-1-31-B (23) for 30 min, after which time FP measurements were obtained. The change in FP obtained relative to vehicle controls is presented. n=3 SD.” left out

T1 sequence (P60843 whole entry, one chain of several): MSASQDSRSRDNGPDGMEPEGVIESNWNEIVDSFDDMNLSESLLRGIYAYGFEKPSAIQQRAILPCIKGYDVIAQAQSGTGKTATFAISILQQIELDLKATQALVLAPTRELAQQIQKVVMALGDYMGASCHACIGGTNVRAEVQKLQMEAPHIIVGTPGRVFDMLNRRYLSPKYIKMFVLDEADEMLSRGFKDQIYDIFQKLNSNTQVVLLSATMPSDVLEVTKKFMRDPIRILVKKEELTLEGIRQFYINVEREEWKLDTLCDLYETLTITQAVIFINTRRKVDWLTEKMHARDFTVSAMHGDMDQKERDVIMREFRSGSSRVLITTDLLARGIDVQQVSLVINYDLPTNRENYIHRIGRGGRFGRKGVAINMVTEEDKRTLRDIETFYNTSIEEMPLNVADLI
Sequence of eIF4A2 (P10630 whole entry, one chain of several): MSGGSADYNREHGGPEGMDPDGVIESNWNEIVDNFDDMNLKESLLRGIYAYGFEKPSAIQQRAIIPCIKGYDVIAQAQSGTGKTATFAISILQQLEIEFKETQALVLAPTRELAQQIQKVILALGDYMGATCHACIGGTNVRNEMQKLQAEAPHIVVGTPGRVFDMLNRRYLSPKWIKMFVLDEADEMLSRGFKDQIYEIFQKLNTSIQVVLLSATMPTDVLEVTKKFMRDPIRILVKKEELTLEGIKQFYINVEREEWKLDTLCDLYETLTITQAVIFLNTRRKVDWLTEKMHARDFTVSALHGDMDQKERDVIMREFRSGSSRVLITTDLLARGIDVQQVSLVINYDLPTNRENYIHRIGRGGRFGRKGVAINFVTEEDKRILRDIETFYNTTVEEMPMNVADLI

Row | Binder | binding result [1] | binding result [2] | binding result [3]
1 | AGAAGAAGAAGAAGAA (ssRNA) [r(A(GAA)5)] | binds | binds | –
2 | AGAGAGAGAGAGAGAG (ssRNA) [poly r(AG)8] | binds | – | binds
